“Also recorded” adds a separate entry of the source.
Assays:
[1] = system: plasma; experiment: Prothrombin time; type: biochemical, human; conditions: for anticoagulant activity, prothrombin time: human plasma, 37° C.; for anticoagulant activity in buffers of high ionic strength: 50 mM Tris-HCl (pH 7.4) with NaCl 35 mM to 150 mM
Description: Briefly, prothrombin times may be measured according to the method of Quick (see Quick A J. (1935) J. Biol. Chem. 109, 73-74). 100 μl of 50 mM of Tris-HCl buffer (pH 7.4), 100 μl of plasma and 50 μL of the protein under investigation are to be incubated for 2 min at 37° C. Clotting is initiated by the addition of 150 μL of thromboplastin with calcium reagent.
Anticoagulant activity—The anticoagulant activities of H. haemachatus venom and its fractions was determined by four coagulation tests using a BBL fibrometer: • 1. Recalcification time: The recalcification times were determined according to the method of Langdell et al. (25). 50 mM Tris-HCl buffer (pH 7.4) (100 μl), plasma (100 μl) and various concentrations of venom or its fraction (50 μl) were preincubated for 2 min at 37° C. Clotting was initiated by the addition of 50 μl of 50 mM CaCl2. • 2. Prothrombin time: The prothrombin times were measured according to the method of Quick (26). 100 μl of 50 mM Tris-HCl buffer (pH 7.4), 100 μl of plasma and 50 μl of venom or its fractions were preincubated for 2 min at 37° C. Clotting was initiated by the addition of thromboplastin with calcium reagent (150 μl) which can be purchased from Sigma (St. Louis, Mo., USA). • For studying the role of electrostatic interactions, the anticoagulant activity of a specific concentration of hemextin A (4.4 μM), hemextin B (4.4 μM) and hemextin AB complex (0.11 μM) was monitored in 50 mM Tris-HCl (pH 7.4) containing various concentrations of NaCl (35 mM to 150 mM). • For studying the role of hydrophobic interactions, the anticoagulant activity of a specific concentration of hemextin A (4.4 μM), hemextin B (4.4 μM) and hemextin AB complex (0.11 μM) was monitored in 50 mM Tris-HCl (pH 7.4) containing various concentrations of glycerol (125 mM to 250 mM). • 2. Stypven time: Stypven time measurements were determined according to the method of Hougie (27). Plasma (100 μl), 50 mM Tris-HCl buffer (pH 7.4) (100 μl) and RVV (0.01 μg in 100 μl) and individual proteins or the reconstituted complex (50 μl) were preincubated for 2 min at 37° C. Clotting was initiated by the addition of 50 mM CaCl2 (50 μl). • 3. Thrombin time: Thrombin time was determined according to the method of Jim (28). Individual proteins or the reconstituted complex were incubated with 100 μl of plasma and 100 μl of 50 mM Tris-HCl buffer (pH 7.4) for 2 min at 37° C. in a total volume 250 μl. Clotting was initiated by the addition of standard thrombin reagent (0.01 NIH units in 50 μl).

[2] = biological target: t-PA (Homo sapiens, UniProt P00750); experiment: Serine protease specificity, t-PA; type: biochemical; conditions: recombinant tissue plasminogen activator (80 nM)/S-2288
Chain of t-PA (P00750 36-562, species assumed): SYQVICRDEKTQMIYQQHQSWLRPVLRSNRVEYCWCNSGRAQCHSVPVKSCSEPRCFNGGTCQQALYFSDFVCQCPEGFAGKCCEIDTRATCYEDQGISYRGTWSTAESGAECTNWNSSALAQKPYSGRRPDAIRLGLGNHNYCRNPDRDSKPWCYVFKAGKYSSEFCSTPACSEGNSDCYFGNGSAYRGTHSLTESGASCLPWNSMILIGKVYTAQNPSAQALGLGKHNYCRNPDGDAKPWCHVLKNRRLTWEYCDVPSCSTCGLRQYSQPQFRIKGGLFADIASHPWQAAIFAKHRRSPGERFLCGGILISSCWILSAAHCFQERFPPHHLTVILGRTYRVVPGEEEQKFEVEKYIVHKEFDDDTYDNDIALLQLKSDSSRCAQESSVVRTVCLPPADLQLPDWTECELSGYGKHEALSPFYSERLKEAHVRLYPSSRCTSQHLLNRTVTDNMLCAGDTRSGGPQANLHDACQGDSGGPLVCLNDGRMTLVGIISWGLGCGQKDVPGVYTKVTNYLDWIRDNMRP
Description: (§1) Serine protease specificity—The selectivity profile of anticoagulant proteins and their complex was examined against 12 serine proteases—procoagulant serine proteases (FIXa, FXa, FXIa, FXIIa, plasma kallikrein and thrombin), anticoagulant serine protease (APC), fibrinolytic serine proteases (urokinase, t-PA and plasmin) and classical serine proteases (trypsin and chymotrypsin). Various concentrations of purified hemextin A/hemextin B and reconstituted hemextin AB complex were preincubated with each of the enzymes (Table 1) for a period of five minutes at a temperature of 37° C., followed by the addition of appropriate chromogenic substrate.
(§2) For studies with FXIa, kallikrein and urokinase, the appropriate substrates were determined prior to their screening against the inhibitors. For FXIa, the Vmax for the amidolytic activity corresponding to the chromogenic substrates S-2266, S-2302 and S-2366 was determined. S-2302 was the substrate with the highest Vmax and thus was used in the screening studies. Similar studies with kallikrein and urokinase were carried out with substrates S-2266, S-2302 and S-2288 for kallikrein and S-2444 and S-2484 for urokinase. In a total volume of 200 μl in the individual wells of the microtiter plate, final concentrations of FVIIa (300 nM)/S-2288, FVIIa-sTF (30 nM)/S-2288, FXa (0.75 nM)/S-2765, α-thrombin (0.66 nM)/S-2238, plasmin (2 nM)/S-2366, FIXa (3 μM)/spectrozyme®fIXa, FXIa (0.34 nM)/S-2366, FXIIa (0.4 nM)/S-2302, recombinant tissue plasminogen activator (80 nM)/S-2288, activated protein C (0.34 nM)/S-2366, urokinase/S-2444, plasma kallikrein (0.4 nM)/S-2302, trypsin (2.17 nM)/S-2222 and chymotrypsin (0.4 nM)/S-2586 were measured. The kinetic rate of substrate hydrolysis (mOD/min) was measured over 5 min.

[3] = biological target: APC (Homo sapiens, UniProt P04070); experiment: Serine protease specificity, APC; type: biochemical; conditions: activated protein C (0.34 nM)/S-2366
Chain of APC (P04070 43-197 limits assumed): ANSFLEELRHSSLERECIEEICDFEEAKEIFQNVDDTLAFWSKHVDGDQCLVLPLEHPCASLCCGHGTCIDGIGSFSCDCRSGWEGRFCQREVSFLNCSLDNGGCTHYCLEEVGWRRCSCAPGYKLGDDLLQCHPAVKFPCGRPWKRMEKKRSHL
Chain of APC (P04070 212-461 limits assumed): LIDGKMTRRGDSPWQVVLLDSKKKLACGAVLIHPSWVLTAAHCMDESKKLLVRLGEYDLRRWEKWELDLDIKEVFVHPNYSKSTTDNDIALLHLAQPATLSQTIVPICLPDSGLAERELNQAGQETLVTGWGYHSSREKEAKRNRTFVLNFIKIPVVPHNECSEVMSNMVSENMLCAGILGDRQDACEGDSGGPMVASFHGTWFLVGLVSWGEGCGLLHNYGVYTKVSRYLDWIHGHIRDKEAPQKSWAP
Description: as §1, §2

[4] = biological target: Plasmin (Homo sapiens, UniProt P00747); experiment: Serine protease specificity, plasmin; type: biochemical; conditions: plasmin (2 nM)
Chain of Plasmin (P00747 581-810 limits assumed, species assumed): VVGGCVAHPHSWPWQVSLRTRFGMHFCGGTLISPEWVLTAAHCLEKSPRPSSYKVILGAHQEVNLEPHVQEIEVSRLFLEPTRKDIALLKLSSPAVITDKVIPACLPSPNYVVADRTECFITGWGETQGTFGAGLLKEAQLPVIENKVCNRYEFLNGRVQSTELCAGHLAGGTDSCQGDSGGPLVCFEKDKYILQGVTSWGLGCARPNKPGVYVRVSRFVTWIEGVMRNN
Chain of Plasmin (P00747 97-580 limits assumed, species assumed): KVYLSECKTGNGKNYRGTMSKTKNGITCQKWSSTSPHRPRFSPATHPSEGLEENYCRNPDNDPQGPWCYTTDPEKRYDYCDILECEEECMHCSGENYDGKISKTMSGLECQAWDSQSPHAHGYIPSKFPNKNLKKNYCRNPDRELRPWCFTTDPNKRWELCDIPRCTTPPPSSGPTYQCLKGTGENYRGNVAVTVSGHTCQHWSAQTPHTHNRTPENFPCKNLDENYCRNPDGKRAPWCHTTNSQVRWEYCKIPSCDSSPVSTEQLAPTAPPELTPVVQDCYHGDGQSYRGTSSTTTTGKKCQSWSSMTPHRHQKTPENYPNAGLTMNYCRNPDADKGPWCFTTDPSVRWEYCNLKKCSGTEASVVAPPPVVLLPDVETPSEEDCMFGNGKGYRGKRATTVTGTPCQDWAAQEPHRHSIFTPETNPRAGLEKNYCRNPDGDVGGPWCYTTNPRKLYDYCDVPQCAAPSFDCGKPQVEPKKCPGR
Description: as §1, §2

[5] = biological target: T1, TF-FVIIa complex (Homo sapiens, UniProt P08709); experiment: Reconstituted extrinsic tenase complex, FXa formation; type: biochemical; conditions: for inhibition of extrinsic tenase activity: 10 pM FVIIa, 70 nM TF, 30 nM FX, FXa by S-2222
T1 construct: tissue Dade Behring Marburg, Germany (TF, Innovin only); host or cells: human plasma (FVIIa)
T1 sequence (P08709 61-212 limits assumed): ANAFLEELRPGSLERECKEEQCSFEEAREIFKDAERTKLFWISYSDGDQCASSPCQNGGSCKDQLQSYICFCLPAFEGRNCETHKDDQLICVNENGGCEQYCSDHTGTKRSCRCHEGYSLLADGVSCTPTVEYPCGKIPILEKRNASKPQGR
T1 sequence (P08709 213-466 limits assumed): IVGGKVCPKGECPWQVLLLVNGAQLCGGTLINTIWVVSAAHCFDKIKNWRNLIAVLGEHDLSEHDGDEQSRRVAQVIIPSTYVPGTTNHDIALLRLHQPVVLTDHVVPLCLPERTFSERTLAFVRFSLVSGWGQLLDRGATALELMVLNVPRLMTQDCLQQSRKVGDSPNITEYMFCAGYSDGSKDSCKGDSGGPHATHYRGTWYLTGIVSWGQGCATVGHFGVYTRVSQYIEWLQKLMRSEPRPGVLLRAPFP
T1 sequence (P13726 33-295 partner): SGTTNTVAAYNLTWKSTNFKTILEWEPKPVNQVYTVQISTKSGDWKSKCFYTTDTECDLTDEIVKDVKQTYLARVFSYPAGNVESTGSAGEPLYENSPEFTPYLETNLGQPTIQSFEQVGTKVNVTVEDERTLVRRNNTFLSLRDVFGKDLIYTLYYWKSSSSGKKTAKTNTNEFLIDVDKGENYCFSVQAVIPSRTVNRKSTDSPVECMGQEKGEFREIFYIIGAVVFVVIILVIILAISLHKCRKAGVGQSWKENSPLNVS
Description: Reconstitution of the extrinsic tenase complex—TF-FVIIa complex was reconstituted by incubating 10 pM FVIIa with 70 nM of recombinant human TF (Innovin) in Buffer A (20 mM HEPES, 150 mM NaCl, 10 mM CaCl2 and 1% BSA, pH 7.4) for 10 min at 37° C. Then FX was added to the mixture to obtain a final concentration of 30 nM. The activation was stopped by the addition 50 μl of stop buffer (20 mM HEPES, 150 mM NaCl, 50 mM EDTA and 1% BSA, pH 7.4) to 50 μl aliquots of the reaction mixture after 15 min incubation. FXa formed was measured by the hydrolysis 1 mM of S-2222 in Buffer A in a microtiter plate reader at 405 nm. The inhibitory effect on extrinsic tenase activity was determined by adding the individual proteins or the anticoagulant complex 15 min prior to FX addition.

B1: hemextin B (protein)
chain: LKCKNKVVPFLKCKNKVVPFLCYKMTLKKVPKIPIKRGCTDACPKSSLLVNVMCCKTDKCN
anticoagulant activity of hemextin A with increasing hemextin B concentrations ([1]; hemextin A constant at 4.4 μM): increases with the increasing concentrations of hemextin B until the ratio reaches 1:1
anticoagulant activity, prothrombin time [1]: did not show any significant effect on clotting time; also recorded: did not prolong clotting times; also recorded: no anticoagulant activity
Observed Effect, t-PA amidolytic activity [2]: no inhibitory activity
Observed Effect, APC amidolytic activity [3]: no inhibitory activity
Observed Effect, plasmin amidolytic activity [4]: no inhibitory activity
inhibition of extrinsic tenase activity [5]: did not mediate any inhibitory activity
inhibitory activity of hemextin A on extrinsic tenase with increasing hemextin B ([5]; hemextin A constant at 50 μM): increases with the increasing concentrations of hemextin B until the ratio reached 1:1

B2: hemextin A (protein)
chain: LKCKNKLVPFLSKTCPEGKNLCYKMTMLKMPKIPIKRGCTDACPKSSLLVKVVCCNKDKCN
anticoagulant activity in buffers of high ionic strength [1]: did not affect the anticoagulant activity
anticoagulant activity, prothrombin time [1]: mild anticoagulant activity
Observed Effect, t-PA amidolytic activity [2]: no inhibitory activity
Observed Effect, APC amidolytic activity [3]: no inhibitory activity
Observed Effect, plasmin amidolytic activity [4]: no inhibitory activity
inhibition of extrinsic tenase activity [5]: mild inhibitory activity at higher concentrations

B3: hemextin AB complex: synergistic 1:1 tetrameric complex of hemextin A and hemextin B, reconstituted from equimolar proteins (protein)
chain 1: B2 chain
chain 2: B1 chain
anticoagulant activity in buffers of high ionic strength [1]: decreased with the increase in ionic strength up to 100 mM NaCl
anticoagulant activity in buffers containing glycerol ([1]; 50 mM Tris-HCl (pH 7.4) with glycerol 125 mM to 250 mM): decreased with the increase in glycerol concentration
anticoagulant activity at 125 mM glycerol ([1]; 125 mM glycerol): no decrease in the anticoagulant activity
anticoagulant activity at 250 mM glycerol ([1]; 250 mM glycerol): higher than that of anticoagulant effect of hemextin A alone
anticoagulant activity, prothrombin time [1]: potent anticoagulant activity
anticoagulant activity, prothrombin time ([1]; listed as equimolar mixture of hemextin A and B): more potent anticoagulant activity
Observed Effect, t-PA amidolytic activity [2]: no inhibitory activity
Observed Effect, APC amidolytic activity [3]: no inhibitory activity
Observed Effect, plasmin amidolytic activity [4]: no inhibitory activity
inhibition of extrinsic tenase activity [5]: completely inhibited

From US20090180995A1, “NOVEL ANTICOAGULANT POLYPEPTIDES AND COMPLEX” (National University of Singapore, priority 2005, published 2009)
